± gives the standard deviation of the averaged measurements.
Test system: Saccharomyces cerevisiae
Experiment: protein stability index of tFT-peptide fusion (C-terminal peptide) (PSI (0-1 scale)); higher = more stable (slower turnover)
Details: genetic background: wild type; temperature: 30 C
Experimental: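 Multiplexed protein stability (MPS) profiling in S. cerevisiae. Random 12-aa peptides (tFT-X12 library) are fused to the C-terminus of a sfGFP-mCherry tandem fluorescent timer, after mCherry and a GGGS linker. Cells are FACS-sorted into 8 mCherry/sfGFP bins and deep-sequenced. The protein stability index (PSI) is the read-weighted bin average, scaled from 0 (unstable) to 1 (stable). Only peptides with >10 reads are reported; cells were grown at 30 °C in SC-His with glucose.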
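Further: PSI is a weighted mean of sequencing reads over stability bins, variants kept only with over 10 reads, mCherry proximal and sfGFP distal, peptide attached via GGGS linker.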

Sequence	protein stability index
ATHSMSYRGSTK	0.662 ± 0.081
ATKKRKKKNKQT	0.756 ± 0.11
ATLDVTALRQES	0.636 ± 0.011
ATPVPTPRPAAP	0.729 ± 0.048
ATPYGLTPNYSG	0.676 ± 0.15
ATRRYQYSPHKV	0.651 ± 0.026
ATTPPSSLFGPL	0.768 ± 0.072
ATVKRAVPPVFR	0.7 ± 0.041
AVARYPPHCSHN	0.768 ± 0.13
AVCVSVCGRLLV	0.5492 ± 0.0023
AVGWQRQTEQRR	0.684 ± 0.088
AVLGGLIYECVV	0.634 ± 0.018
AVLGRRSQHASA	0.6832 ± 0.0036
AVNADMHDKKIA	0.7 ± 0.036
AVPAPPPTLPPI	0.685 ± 0.051
AVPSPVTLPTTS	0.641 ± 0.066
AVQTTGRAGRVG	0.683 ± 0.056
AVVRTVVCLNVL	0.573 ± 0.013
AVVVCGGGGWWA	0.687 ± 0.068
AVVWMGAGVGGV	0.718 ± 0.03
AVWLGGGGRFVG	0.78 ± 0.034
AWAVGPTICRRG	0.7219 ± 0.0021
AWLPVLPLVSFF	0.621 ± 0.062
AWLTTSGLVGSD	0.725 ± 0.029
AYYRPQNLSPVT	0.675 ± 0.083
CAADYRRHLQRP	0.669 ± 0.026

Sequence	protein stability index
CAAVPLLASDVR	0.688 ± 0.011
CAAYIYLGGSFF	0.707 ± 0.033
CACIPLHFAPSL	0.683 ± 0.04
CANFIGAVPGSV	0.686 ± 0.011
CAQLVLDNHTGP	0.69 ± 0.079
CAVLGGGVVWGA	0.668 ± 0.028
CAVPAVIDLDKF	0.65 ± 0.087
CCADPWRIARPW	0.729 ± 0.042
CCCGSGFFLLKV	0.525 ± 0.021
CCFPPLSPPASP	0.656 ± 0.072
CCGHEFEIYNWV	0.786 ± 0.1
CCILTHFSSCET	0.679 ± 0.011
CCTPSFANVRDG	0.6998 ± 0.0027
CECAEGRGKDRS	0.591 ± 0.0069
CELCVCKHGGKG	0.702 ± 0.013
CFASTFVSPILH	0.694 ± 0.03
CFFVRLSSFYCS	0.63 ± 0.0089
CFLFSFSLFPFV	0.618 ± 0.066
CFPALSGVQGGM	0.706 ± 0.082
CFPPLPPPPPPS	0.736 ± 0.0077
CFPRVLFPVAAP	0.608 ± 0.049
CFPSSVPFPSLL	0.778 ± 0.058
CFVLPWHVPFGF	0.715 ± 0.021
CGCGCPSRVLVS	0.643 ± 0.061
CGCSLPGFCFLA	0.53 ± 0.022
CGDAGSVGCVYV	0.699 ± 0.055

Sequence	protein stability index
CGEGGVCRLVFS	0.682 ± 0.0074
CGGAADWRDWGW	0.775 ± 0.086
CGGFAEGGGCRM	0.697 ± 0.028
CGLFFSCVGVSG	0.6411 ± 0.005
CGQGRSVPFRSV	0.658 ± 0.0094
CGQKREFKEGGG	0.634 ± 0.0059
CGWLTCSAGFCA	0.726 ± 0.11
CGWSQLCRDSES	0.675 ± 0.042
CGYVSGGWAGNV	0.691 ± 0.025
CHTDLPLLGTSR	0.681 ± 0.022
CHTESKLKRKKW	0.645 ± 0.028
CIPCLLAYPETC	0.655 ± 0.14
CIRPPPPSPKLM	0.694 ± 0.0096
CISIRKEERRKI	0.7012 ± 0.0019
CKCRRYYTLNGG	0.656 ± 0.025
CKFPSLCVLSSV	0.654 ± 0.07
CKHPAWFQPRVG	0.618 ± 0.044
CKIGMFIRWIGG	0.571 ± 0.04
CKLDVMSRSFVG	0.664 ± 0.0089
CKNRLKMKQESK	0.658 ± 0.028
CLAFDLGLSPLF	0.755 ± 0.099
CLEGCTIHTSGE	0.652 ± 0.015
CLFWWDASTILP	0.68 ± 0.13
CLGGRRVCRCKG	0.631 ± 0.054
CLGVCAFSFCCN	0.624 ± 0.012
CLLPGSSYSFTS	0.712 ± 0.045

Sequence	protein stability index
CLMHTENCIRKA	0.674 ± 0.032
CLRDTLTCLFFF	0.5953 ± 0.0044
CLRGLLVMLYQR	0.54 ± 0.01
CLRRGGAGEGAS	0.687 ± 0.0037
CLRWSRVGTVVV	0.564 ± 0.025
CLSDPDVVRVLS	0.6914 ± 0.0018
CLSLLWRVLDLW	0.688 ± 0.065
CLWGQWAVGCMG	0.6169 ± 0.0019
CNGPRLFDKSPI	0.695 ± 0.017
CNRVSLSNVRLF	0.6675 ± 0.00083
CPFPLPPPTLPP	0.657 ± 0.01
CPGVLVLMCGRP	0.589 ± 0.009
CPLLSCAAFLSS	0.719 ± 0.025
CPLLSPTPPLRP	0.703 ± 0.019
CPPLEWSLRYPV	0.722 ± 0.017
CPPRIAFPCGIQ	0.649 ± 0.094
CPPRPLHSPLPP	0.694 ± 0.022
CRGGLGASCRGR	0.67 ± 0.008
CRGGPLGYGCGS	0.827 ± 0.17
CRGRGGCPMSWR	0.689 ± 0.1
CRGRSGMCNLET	0.751 ± 0.04
CRGWVRVAGLRA	0.604 ± 0.085
CRKIKFIQKINK	0.623 ± 0.046
CRLRLVYCVKYD	0.621 ± 0.013
CRMPLFGSYPLG	0.683 ± 0.022
CRSNISDLFSSV	0.7793 ± 0.0063

Sequence	protein stability index
CSEDMVGSIVVV	0.651 ± 0.041
CSFFGPGFICSL	0.666 ± 0.013
CSLFIRCAPFCG	0.705 ± 0.017
CSLFRCSKVVLG	0.672 ± 0.037
CSLGLGGRVAAL	0.697 ± 0.048
CSLSYFSAHCVP	0.665 ± 0.044
CSLTVGYNRHDV	0.635 ± 0.00084
CSLVWPGSMSVD	0.738 ± 0.033
CSNKIILMTRNN	0.564 ± 0.041
CSPLNFGNGLLL	0.584 ± 0.013
CSRTIGGFLWDQ	0.6994 ± 0.0054
CSSLPPCPYSLP	0.654 ± 0.12
CSSVRRRSWCFS	0.846 ± 0.16
CSTIRDFTIYPP	0.694 ± 0.11
CSVGLPPLPPLH	0.704 ± 0.076
CSVVMGFYCRGA	0.694 ± 0.038
CTGISVFYLFGD	0.66 ± 0.033
CTLSQGLSGSRI	0.6609 ± 0.0024
CTLWCIPGCNMR	0.666 ± 0.066
CTPVLLLRVLGN	0.58 ± 0.036
CTSCHVWRLSRF	0.765 ± 0.034
CVCVCHPPRRFL	0.719 ± 0.015
CVGLIGVINGGL	0.558 ± 0.0081
CVGPSVERGFWG	0.689 ± 0.031
CVGTLSPKTVRT	0.697 ± 0.024
CVLGVGVPAGGG	0.634 ± 0.032

Sequence	protein stability index
CVPPSFRPSLFD	0.75 ± 0.015
CVREDSRPFPAS	0.76 ± 0.044
CVSRRRGGEIGG	0.655 ± 0.044
CVSSALRVPGRE	0.699 ± 0.027
CVTFGGCGVWYV	0.624 ± 0.018
CVWFGVGRCCGR	0.648 ± 0.043
CVWHELTYGSLY	0.66 ± 0.062
CWASTFGLGFLP	0.757 ± 0.0022
CWCRVGSSGCVR	0.668 ± 0.039
CWGAGPRLVRVW	0.4998 ± 0.00039
CWLGSIAGLRGR	0.7399 ± 0.0064
CWPLITTNCTVP	0.7081 ± 0.0054
CYRWVLGVDARV	0.649 ± 0.012
DAMSTRSRLLTR	0.7109 ± 0.0051
DASCAPAQYLPI	0.673 ± 0.025
DASGGKKVSRGT	0.571
DCCTGGKCLEVW	0.603 ± 0.047
DCMSSVFQSPPG	0.693 ± 0.01
DCSCCGGVSCVV	0.639 ± 0.014
DCVWGLERVLLL	0.756 ± 0.016
DCWAGWGLCGGG	0.723 ± 0.042
DDIGGRKLCVRG	0.6692 ± 0.0028
DEKKMEKQTNRT	0.638 ± 0.045
DENEKIKKVKVK	0.754 ± 0.02
DERVSAQDFLEG	0.6873 ± 0.003

Reference: the supplement of paper PMC10724198
